Reference: patent US6103872A, “CAPON: a protein associated with neuronal nitric oxide synthase” (The Johns Hopkins University, priority 1998, dated 2000)

Key:
nNOS [1] = target: T1, nNOS (Rattus norvegicus, UniProt P29476); assay: nNOS catalytic activity; format: biochemical; details: data not shown
nNOS/PSD95 interaction [2] = assay: Coimmunoprecipitation of myc-PSD95 with HA-nNOS in transfected HEK293 cells; format: cell-based; details: cotransfection of full-length CAPON expression plasmid
Excerpt: FIG. 6. CAPON expression prevents the interaction of PSD95 and nNOS. HEK293 cells were transfected with various combinations of expression plasmids for HA-tagged nNOS (HA-NOS), myc-tagged PSD95, or CAPON. Following transfection, the lysates were immunoprecipitated with an anti-HA antibody and bound proteins were detected with the appropriate antibodies. Following cotransfection of HA-NOS and myc-PSD95, myc-PSD95 is detected in anti-HA immunoprecipitates. […] In the absence of HA-nNOS transfection, neither myc-PSD95 or CAPON is immunoprecipitated by anti-HA antibodies.
We wanted to determine if CAPON and PSD95 compete for binding to nNOS in intact cells. Accordingly, we transfected HEK-293 cells with various mixtures of expression plasmids containing cDNAs of hemagglutinin antigen (HA)-tagged nNOS, myc-tagged PSD95 and/or full-length CAPON. Following immunoprecipitation with antibodies to HA, we examined which proteins coprecipitated. In cells expressing HA-nNOS and myc-PSD95, antibodies to HA coprecipitate myc-PSD95 (FIG. 6). When various amounts of CAPON cDNA containing expression plasmids are also transfected, HA-immunoprecipitatescontain CAPON but substantially less PSD95.

nNOS [3] = target: T1, nNOS; assay: CAPON C-terminal peptides as competitors for nNOS binding; design: expressed in transfected cells; host or cells: HEK293
nNOS/PSD95 interaction [4] = assay: Competition of His6-fusion proteins for nNOS binding to immobilized GST-PSD95; design: competition for / block of nNOS-PSD95 interaction: dose or concentration left out as unconfirmed; details: for block of nNOS/PSD95 interaction in vitro: no concentration stated
Procedure: (§1) The C-terminal 100 amino acids were fused to a His6 tag and added to HEK293 lysates transfected with nNOS expression plasmids at the indicated fusion protein concentration. This mixture was added to GST-PSD95 (amino acids 20-364) or GST-PSD93 (116-421), the regions of these proteins previously shown to interact with nNOS (Brenrman et al., 1996).
(FIG. 5B) Quantification of CAPON inhibition of the nNOS/PSD95 interaction. HEK293 cells were transfected with nNOS expression plasmids and then metabolically labeled with [^35 S] methionine. Radiolabeled nNOS was purified and mixed with His6 -CAPON as in (A), above. Bound nNOS was resolved by electrophoresis and counts were determined on a Phospholmager.
Transfections were performed with 10 μg of each plasmid using the calcium phosphate method. Following transfection, cells were sonicated in buffer A [50 mM Tris-HCl (pH 7.7), 100 mM NaCl, 2 mM EDTA, and 1% Triton X-100] and cleared by centrifugation. This cellular lysate was incubated with GST-fusion protein immobilized on glutathione-agarose for one hour at 4° C. and washed extensively in HNTG buffer [20 mM Hepes (pH 7.4), 500 mM NaCl, 10% glycerol, and 0.1% Triton X-100] five times, for ten minutes per wash at room temperature. A GST-CAPON fusion protein consisting of amino acids 379-503 was used for binding assays because it was more soluble when expressed in bacteria than larger CAPON fusion proteins.
For quantitative binding experiments, transfected cells were metabolically labeled overnight with […] [^35 S] methionine and nNOS was purified by NADPH elution of 2', 5' ADP ribose as described previously (Bredt and Snyder, 1990).
Since the nNOS PDZ domain is capable of both PDZ-PDZ interactions and PDZ-C-terminal peptide interactions we wondered whether CAPON and PSD95 can bind simultaneously to nNOS or whether their interactions with nNOS are mutually exclusive. To answer this question we incubated lysates of HEK-293 cells containing nNOS with various concentrations of a His6 -CAPON fusion protein, comprising the last 125 amino acids of CAPON, and then added these lysates to GST-PSD95 immobilized on glutathione agarose resin (FIG. 5A). After extensive washing of the resin, we assayed for nNOS bound to PSD95 by Western blot. […] Half maximal reduction of binding is evident between 5 and 50 nM His6 -CAPON (FIG. 5B). […] As controls, we examined the effects of 5 μM His6 -PIN or […] His6 -FK506 binding protein-12 kD (FKBP). […] These effects of CAPON likely reflect its binding to nNOS rather than to the PDZ domains of either PSD95 or PSD93 because CAPON fails to interact with either PSD93 or PSD95 using (i) a two-hybrid assay (see FIG. 1A) and (ii) in vitro experiments utilizing immobilized GST-PSD95 and purified recombinant CAPON (data not shown).

[5] = target: nNOS expressed in transfected HEK293 cells (lysate; also metabolically labelled and purified); assay: competition: nNOS (HEK-293) binding to immobilized GST-PSD95 in the presence of His6-CAPON
[6] = target: nNOS (purified nNOS standard; preparation and species not stated); assay: peptide competition; format not described
nNOS PDZ domain = assay: Binding of mutagenized His6-CAPON fusion proteins to immobilized GST-NOS (1-100); details: His6-fusion of last 100 amino acids of CAPON, last four amino acids given
Procedure: His6 -fusion proteins of the last 100 amino acids of CAPON were generated and incubated with GST-NOS (1-100) immobilized on glutathione agarose.
Recently Cantley and associates (Songyang et al., 1997) identified consensus sequences for binding to several PDZ domains. Binding of PDZ ligands involves the C-terminus of proteins, with determinants of specificity lying within the eight or fewer C-terminal amino acids. A consistent requirement among all the PDZ domain ligands is a hydrophobic residue, such as valine or leucine, as the final amino acid.

[7] = target: T2, nNOS construct comprising amino acids 163-245 (PIN-binding domain of nNOS), Gal4 BD fusion (rat); assay: yeast two-hybrid with truncations of nNOS
T2 chain: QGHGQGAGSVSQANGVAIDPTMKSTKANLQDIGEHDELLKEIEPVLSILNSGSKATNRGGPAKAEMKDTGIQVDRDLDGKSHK

nNOS/PSD93 interaction = assay: Competition for nNOS binding to immobilized GST-PSD93
Procedure: as §1
Since the nNOS PDZ domain is capable of both PDZ-PDZ interactions and PDZ-C-terminal peptide interactions we wondered whether CAPON and PSD95 can bind simultaneously to nNOS or whether their interactions with nNOS are mutually exclusive. To answer this question we incubated lysates of HEK-293 cells containing nNOS with various concentrations of a His6 -CAPON fusion protein, comprising the last 125 amino acids of CAPON, and then added these lysates to GST-PSD95 immobilized on glutathione agarose resin (FIG. 5A). After extensive washing of the resin, we assayed for nNOS bound to PSD95 by Western blot. […] Half maximal reduction of binding is evident between 5 and 50 nM His6 -CAPON (FIG. 5B). […] As controls, we examined the effects of 5 μM His6 -PIN or […] His6 -FK506 binding protein-12 kD (FKBP). […]

CAPON: Carboxyl-terminal PDZ ligand of nNOS, 503 amino acid rat cytoplasmic protein
direct inhibition of nNOS catalytic activity (nNOS [1]): does not inhibit | amount of myc-PSD95 in anti-HA precipitates (nNOS/PSD95 interaction [2]): substantially reduces

peptides comprising the C-terminal nine residues of CAPON: short, presumably unfolded, peptides comprising the C-terminal nine residues of CAPON (DSLDDEIAV)
binding to nNOS (nNOS [3]): bind nNOS weakly

His6 -FKBP: His6-tagged FK506 binding protein-12 kD, control protein [reference compound]
competition for / block of nNOS-PSD95 interaction (nNOS/PSD95 interaction [4]): Neither of these proteins compete | block of nNOS/PSD95 interaction in vitro (nNOS/PSD95 interaction [4]): do not disrupt

His6-CAPON fusion protein comprising the last 125 amino acids of CAPON
IC50 [5]: 0.005 to 0.05 µM

16-residue peptides: 16-residue peptides of the CAPON C-terminus (LQRQELGDSLDDEIAV; UniProt O54960 488-503, looked up, fragment)
IC50 (nNOS [3]; read-out: IC50 as competitor): 10 µM

B1: DC20: His6-CAPON fusion protein with the C-terminal 20 amino acids deleted (protein)
chain: SGALPVLCESTTPKPEDLHSPLLGAGLADFAHPVGSPLGRRDCLVKLECFRFLPAEDNQPMAQGEPLLGGLELIKFRESGIASEYESNTDESEERDSWSQEELPR
competition for / block of nNOS-PSD95 interaction (nNOS/PSD95 interaction [4]): fails to block the interaction | block of nNOS/PSD95 interaction in vitro (nNOS/PSD95 interaction [4]): abolishes its ability to serve as a competitor

B2: 16-residue peptides of CAPON (peptide)
peptide: LQRQELGDSLDDEIAV
IC50 [6]: 10000 µM

B3: EIAA: His6-CAPON (last 100 amino acids), terminal valine mutated to alanine (protein)
chain: GLADFAHPVGSPLGRRDCLVKLECFRFLPAEDNQPMAQGEPLLGGLELIKFRESGIASEYESNTDESEERDSWSQEELPRLLNVLQRQELGDSLDDEIAA
binding to GST-NOS (1-100) (nNOS PDZ domain): prevents binding

B4: ESAV: His6-CAPON (last 100 amino acids), n-2 isoleucine mutated to serine (protein)
chain: GLADFAHPVGSPLGRRDCLVKLECFRFLPAEDNQPMAQGEPLLGGLELIKFRESGIASEYESNTDESEERDSWSQEELPRLLNVLQRQELGDSLDDESAV
binding to GST-NOS (1-100) (nNOS PDZ domain): tolerated

B5: EAAV: His6-CAPON (last 100 amino acids), n-2 isoleucine mutated to alanine (protein)
chain: GLADFAHPVGSPLGRRDCLVKLECFRFLPAEDNQPMAQGEPLLGGLELIKFRESGIASEYESNTDESEERDSWSQEELPRLLNVLQRQELGDSLDDEAAV
binding to GST-NOS (1-100) (nNOS PDZ domain): tolerated

B6: pAD-CAPON1 (Gal4 activation domain fused to the last 125 amino acids of CAPON) (other)
chain: SGALPVLCESTTPKPEDLHSPLLGAGLADFAHPVGSPLGRRDCLVKLECFRFLPAEDNQPMAQGEPLLGGLELIKFRESGIASEYESNTDESEERDSWSQEELPRLLNVLQRQELGDSLDDEIAV
binding result [7]: no binding

B7: His6 -CAPON: His6-tagged fusion protein of the C-terminal 100 or 125 amino acids of CAPON (protein)
chain: SGALPVLCESTTPKPEDLHSPLLGAGLADFAHPVGSPLGRRDCLVKLECFRFLPAEDNQPMAQGEPLLGGLELIKFRESGIASEYESNTDESEERDSWSQEELPRLLNVLQRQELGDSLDDEIAV
binding to GST-NOS (1-100) (nNOS PDZ domain): binds | competition for nNOS binding to immobilized GST-PSD93 (nNOS/PSD93 interaction): effective competitor | reduction of nNOS binding to GST-PSD95 (nNOS/PSD95 interaction [4]; 5 nM fusion protein): substantial reduction | block of nNOS/PSD95 interaction in vitro (nNOS/PSD95 interaction [4]): specifically block | effective concentration range as competitor (nNOS/PSD95 interaction [4]; see FIG. 5): active in the nanomolar range
